{"source": "patent US8445246B2", "about": "“Flavin-binding glucose dehydrogenases” (Kikkoman Corporation, priority 2009, dated 2013)", "molecules": {"B1": {"name": "Aspergillus niger-derived GOD: commercially available glucose oxidase derived from Aspergillus niger (GOD, product of Biozyme Laboratories) (protein, UniProt P13006 17-605, looked up)", "Glucose oxidase": "LPHYIRSNGIEASLLTDPKDVSGRTVDYIIAGGGLTGLTTAARLTENPNISVLVIESGSYESDRGPIIEDLNAYGDIFGSSVDHAYETVELATNNQTALIRSGNGLGGSTLVNGGTWTRPHKAQVDSWETVFGNEGWNWDNVAAYSLQAERARAPNAKQIAAGHYFNASCHGVNGTVHAGPRDTGDDYSPIVKALMSAVEDRGVPTKKDFGCGDPHGVSMFPNTLHEDQVRSDAAREWLLPNYQRPNLQVLTGQYVGKVLLSQNGTTPRAVGVEFGTHKGNTHNVYAKHEVLLAAGSAVSPTILEYSGIGMKSILEPLGIDTVVDLPVGLNLQDQTTATVRSRITSAGAGQGQAAWFATFNETFGDYSEKAHELLNTKLEQWAEEAVARGGFHNTTALLIQYENYRDWIVNHNVAYSELFLDTAGVASFDVWDLLPFTRGYVHILDKDPYLHHFAYDPQYFLNELDLLGQAAATQLARNISNSGAMQTYFAGETIPGDNLAYDADLSAWTEYIPYHFRPNYHGVGTCSMMPKEMGGVVDNAARVYGVQGLRVIDGSIPPTQMSSHVMTVFYAMALKISDAILEDYASMQ"}}, "key": {"[1]": {"test": "GDH activity measurement (PMS/DCIP, absorbance at 600 nm)", "format": "biochemical", "conditions": "purified enzymes / commercial GOD", "protocol": "Specifically, the activity of the flavin-binding GDH is measured in the following manner, according to the invention. A mixture of 1.79 mL of 100 mM phosphate buffer (pH 7.0), 0.08 mL of a 1.25 M D-glucose solution and 0.01 mL of a 20 mM DCIP solution is warmed at 37° C. for 5 minutes. Next, 0.02 mL of a 20 mM PMS solution and 0.1 mL of an enzyme sample solution are added, and reaction is initiated. The absorbance is measured at the start of the reaction and periodically thereafter, the reduction in absorbance at 600 nm per minute (ΔA600) as the enzyme reaction proceeds is determined, and the flavin-binding GDH activity is calculated by the following formula. […]\nThe value of 2.0 in the formula is the liquid volume (mL) of reaction reagent+enzyme reagent, 16.3 is the millimolar molecular absorption coefficient (cm^2/μmol) under the activity measuring conditions, 0.1 is the liquid volume (mL) of the enzyme solution, 1.0 is the optical path length (cm) of the cell, ΔA600blank is the reduction in absorbance at 600 nm per minute, when the reaction is initiated by addition of 10 mM acetate buffer instead of the enzyme sample solution, and df represents the degree of dilution.\nEach solution was combined by the procedure described below, and the absorbance was measured to determine the GDH activity of the crude enzyme solution. […]"}, "[2]": {"test": "GOD activity measurement (4-AA/TOOS/POD, absorbance at 555 nm)", "format": "biochemical", "conditions": "131 mM D-glucose, 37° C.", "protocol": "The GDH activity was measured according to the method of Example 1, and GOD activity was measured by the following method using 4-aminoantipyrine (4-AA) and N-ethyl-N-(2-hydroxy-3-sulfopropyl)-3-methylaniline (TOOS). After mixing 30.0 mL of 100 mM phosphate buffer (pH 7.0), 6.0 mL of an 833 mM D-glucose solution, 0.3 mL of a 25 mM 4-AA solution, 0.3 mL of a 40 mM TOOS solution and 0.3 mL of a 500 U/mL, POD solution, 3.0 mL of the mixture was transferred to a test tube and warmed at 37° C. for 5 minutes, after which 0.1 mL of enzyme sample solution was added and reaction was initiated. The increase in absorbance at 555 nm per minute (ΔA555) was measured as the enzyme reaction proceeded, and the GOD activity was calculated by the formula shown below. […]\nThe value of 3.1 in the formula is the liquid volume (mL) of reaction reagents+enzyme reagent, 32.8 is the millimolar molecular absorption coefficient (cm^2/μmol) under the activity measuring conditions, 0.5 is the number of molecules of quinoneimine dye produced when 1 molecule of H2O2 is reduced, 0.1 is the liquid volume (mL) of the enzyme solution, 1.0 is the optical path length (cm) of the cell, ΔA555blank is the increase in absorbance at 555 nm per minute, when the reaction is initiated by addition of 10 mM acetate buffer instead of the enzyme sample solution, and df represents the degree of dilution."}}}
{"molecule": "B1", "values": [{"measurement": "GDH activity", "setting": "[1]", "result": 3.50, "unit": "U/mL"}, {"measurement": "GOD activity", "setting": "[2]", "result": 9.38, "unit": "U/mL"}]}
